The values below come from a protein production outcome set (Wang et al. 2014).
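Also: failed if final PepcDB status was selected cloned or expressed and not failed if soluble or beyond.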

A short description of the series: label from the status in PepcDB records.
Regarding “MTAEETVNVKEVEIIKLILDFLNSKKLHISMLALEKESGVINGLFSDDMLFLRQLILDGQWDEVLQFIQPLECMEKFDKKRFRYIILKQKFLEALCVNNAMSAEDEPQHLEFTMQEAVQCLHALEEYCPSKDDYSKLCLLLTLPRLTNHAEFKDWNPSTARVHCFEEVCVMVAEFIPADRKLSEAGFKASNNRLFQLVMKGLLYECCVEFCQSKATGEEITESEVLLGIDLLCGNGCDDLDLSLLSWLQNLPSSVFSCAFEQKMLNIHVDKLLKPTKAAYADLLTPLISKLSPYPSSPMRRPQSADAYMTRSLNPALDGLTCGLTSHDKRISDLGNKTSPMSHSFANFHYPGVQNLSRSLLLENTECHSIYEESPERSDTPVETQQPVSIEPMCQGSGLEKEPANGAQNPVPAKQQEKNELRDSTEQFQEYYRQRLRYQQHLEQKEQQRQIYQQMLLEGGVNQEDGPDQQQNLTEQFLNRSIQKLGELNIGMDSLGNEVPVLNQQCLGSKNSGSNNSSVTSFSSPPQDSSQRLTHDTSNIHTSTPRNPGSTNHIPFLEESPCGSQNSSEHSVVKPSPGDSSGSLSRSKGEEDDKSKKQFVCINTLEDTQAVRAVAFHPSGSLYAVGSNSKTLRVCAYPEKLDTSAHDGPKQPVVRFKRNKHHKGSIYCVAWSPCGQLLATGSNDKYVKVLPFNAETCNATGPDLEFSMHDGTIRDLAFMEGPESGGAILISAGAGDCNIYTTDCQRGQGLHALSGHTGHILALYTWSGWMIASGSQDKTVRFWDLRVPSCVRVVGTTFHGTGSAVASVAVDPSGRLLATGQEDSSCMLYDIRGGRMVQSYHPHSSDVRSVRFSPGAHYLLTGSYDMKIKVTDLQGDLTKQLPLMVVGEHKDKVIQCRWHTQDLSFLSSSADRTVTLWTYSG”, the protein production result was “failed”.
Consider “MNPLDVWYNIKMNVKKQIFKGTLYAVVAGCMWGISGIFGQLFFRDYHGSPLWITSTRLTIAGIILLAMSFSRDHKRFFDVWKSKKNMPTLFLYVFGGVFSVQYFYYVAIQLSNSATATILQYTAPVFIMLYLLIFQRQVPKPKSVLFVILAMIGVFLLITDGNIKHLSISPLALVTGLLAGVAVVIYSIIPRPLLDKYGALNMTGWGMMLAGIACNIFYPVWRIDFRIEPLSIFYVLTISIVGTALAFLLLLRAFQLISPLVVSVATATEPLTSVFLSIPLFGLKLTPLELLGIVMVIVSVILLSKSEQA”, for which the protein production entry is “failed”.
For the sequence “MTMTRTPLTQAAATLKARFREIGYTTSGINNVLGPDFVAAMHAGQPAAVRFHLDSLPESDLNLALRAFVLRDQVRVEKLAALLGEALKTLVDASLVEISGEYAQFLIDIRPHLIAGRQQWVFSDADASMTQHVPGPDHVLGVGAASLSLLQATPTSPTGSVLDLGTGSGIQVLGQAGAAQEIIATDVHPRALDFAEATLVDSGIPTQLVEGSWFEPVRGRTFDRIIANPPFVVGPPEIGHVYRDSGMDLDGATALVVKEACAHLNPGGTAHLLGAWVHSADQSWQQRVAEWLPDNGYVAWVIERDAVSPAQYVGTWLSDESLDLRSPEAAARTTAWLNHFEKAKVQGVGFGFIAIQRLEEDEADEKSDILAESMTQYFEDPLGPEIEEYFTRTAWLREQTRDSILSSRFKVRPGVAREQISLADAEEGMGFSPVTLRLTRTDGPRWSHDVDEHVASIVAGLNPHGLPFEEILEMYAMAQGIEGESLHNGAIAALVDLIRHGLVLPADLLDS”, the protein production result is given as “failed”.
The entry for “MNPAPERTVMQHVRPLPYEADFTGFLSNTVAPRWMEALRIQRMRTCFPHFDSGAPQHLCIITETTVRYRKPVRYSDAIVGKAWLQSARYSRWIIAFSFAFEFSGLPAFEGRQAGTFIDPLEHHHHHH” is “failed”; for “MGHHHHHHSHMRTISFFNNKGGVGKTTLSTNVAHYFALQGKRVLYVDCDPQCNATQLMLTEEQTESIYLDGLNDEVAERNSLAKTVYAIFVPLREGESQIAAEITPMRSERFGVDVLPGHPALSQIEDLMSDSWQSALGRQTGPFRRIHWAGQLAHAMERDDRYDVIFFDVGPSLGPFNRTVLLGCDAFVTPTATDLFSFHAFGNLARWFDAWVTQYAEIHEGNMAEWKKYS” it is “failed”; for “MQARLSGTSIGLTGPAATKLVRLSRAIEWMSTIGIVLIVGLIGAVFLVPSWTRNLLLTKLGEIGTRLPLDAGNQALAAVIITVPVAVMLWGLVNVRALFAEFARGQVFTTTAATYLQRFGIAVLAQGLLGPVTATALALALSLSNPPGQRLLVLTFSSNDYVSVIVGGVLVAVAAVMREAARLADENASFV” it is “failed”.
Turning to “MVDDRFNHFRIINRVLEKGMPVLTPVSVAIGVWMAERFSNFASAVPWLFAVISFVGALGLTLVDIRERLRRPQAMIVTLFILQILMPLIALLVGMWLFDPMTRSGLVLAFSIPTGVMSLMWVTIYHGNKSFALAVVFIHTLLSPFFIPWTLRWFIGTDIPFDVGGMVWGLLWMIVIPSLLAISATRYTPKVVPMMKDVLSPIAKLHLFLIIMINSSVAAPFIRSWDLSLLYIILTVLAIALSGYGLGYVGARLLKLDESMRISMVYTCGMRNIGAGAALAVAYFPPPVMVPIVAAILFQQVLAAALGKWMRTGRTDQSLIERGTT”, the protein production result is reported as “failed”.
Regarding “MSITATHDTSSKGRHALPALALLLLMTLSGCAARDMGDGTSPSLMERHATGKSLAPDAPGTPQRQGTPAAEAEAHLQRGLAYLAQDRPELAFEHFSRAASLAPEMVEPRLQRARLLVRRGMPNEAAADIEAVLAASPQHARAWELAGMVAFDRGLLDEAEADFTRAITLDPDLASCYAHLGAVHDYKGRPDLARDVYAAALVRFPQSGELHNNLGVAFSMLGDDASALHHFHEAVVLGASSERSWNNMGLALCRLGRFDEAFEAFRNAGGEAAAHNNLGYFFLVNGDASLAVQHLQRAVELEPRYYVRAAENLKRARLAARFAAGGVPVPAAGPQTGGIAGTPVNKAGVLPPATGKGPGTRTTGAGERVIQ”, the protein production result is listed as “failed”.
In the case of “MKRLEVSNQAKLPTQFGEFYIQCFREKGSNGSKDHLVVFTPNFSQNPLVRLHSECLTGDALGSQKCDCGGALQMALERISKEGGLVIYLRQEGRGIGLFNKVNAYALQDKGYDTIQANEMIGFKDDERDYSVAGEILEYYRIKKMRLLTNNPKKIAALEKYAEVTRESLIVCANEHNQGYLEVKKLKMGHLL”, the protein production entry is recorded as “failed”.
The value for “MIKLSSITAHILDIWHRRNSRSYIAHLRSLGIRIGDGCIFRDPLTTRIDVSRPALVSIGSNVDMNTYFQILTHDWASFVFRNKYHDFVNSSGRVEIGSNIYIGTNVIVLRGVTIGDNCVIGAGSVVTHDIPANSVAVGAPCRVVCSLEHHHHHH” was “not failed”.
For “MPKFDVSKSDLERLIGRSFSIEEWEDLVLYAKCELDDVWEENGKVYFKLDSKDTNRPDLWSAEGVARQIKWALGIEKGLPKYEVKKSNVTVYVDEKLKDIRPYGVYAIVEGLRLDEDSLSQMIQLQEKIALTFGRRRREVAIGIFDFDKIKPPIYYKAAEKTEKFAPLGYKEEMTLEEILEKHEKGREYGHLIKDKQFYPLLIDSEGNVLSMPPIINSEFTGRVTTDTKNVFIDVTGWKLEKVMLALNVMVTALAERGGKIRSVRVVYKDFEIETPDLTPKEFEVELDYIRKLSGLELNDGEIKELLEKMMYEVEISRGRAKLKYPAFRDDIMHARDILEDVLIAYGYNNIEPEEPKLAVQGRGDPFKDFEDAIRDLMVGFGLQEVMTFNLTNKEVQFKKMNIPEEEIVEIANPISQRWSALRKWILPSLMEFLSNNTHEEYPQRIFEVGLATLIDESRETKTVSEPKLAVALAGTGYTFTNAKEILDALMRHLGFEYEIEEVEHGSFIPGRAGKIIVNGRDIGIIGEVHPQVLENWNIEVPVVAFEIFLRPLYRH”, the protein production entry was “not failed”.
The value for “MPGPSRKAAAWLPILVILVAMTSIQSGASLAKSLFPVVGAPGVTALRLALGTLILVVVFKPWRLRFSPAQRVPLLLYGLALGAMNYLFYLSLQRIPLGVAVALEFTGPLAVALFGSRRPLDFVWVALAILGLWYLLPLGQNVAQVDLTGALFALGAGACWAVYILTGQRAGEEHGPATVAMGSLIASLVFVPLGMAQATDTLWQWSLLPLGLGIAILSTALPYSLEMMALTRLPTRTFGTLMSLEPALAALSGMIFLGETLKLSQTLALGAIIIASMGATLTMQRQSKVEQVDIN” was “failed”; that for “MAGEDSFERIALEWHARHMANKSESHATKTLERLRKDVFPWIGNRPVREITAPELLSVLRRIESRGAIELCHVTKRICGQVMRYAIATGRAERDPAADLKGALQPVKARHLEHHHHHH” was “failed”.
For “ERNKTLYWGGALWSPPSNWNPFTPWNAVAGTIGLVYEPLFLYDPLNDKFEPWLAEKGEWVSNNEYVLTLRKGLRWQDGVPLTADDVVFTFEIAKKYTGISYSPVWNWLGRIERVDERTLKFVFSDPRYQEWKQMLINTPIVPKHIWENKTEEEVLQAANENPVGSGPYYVESWADDRCVFKKNGNWWGIRELGYDPKPERIVELRVLSNNVAVGMLMKGELDWSNFFLPGVPVLKKAYGIVTWYENAPYMLPANTAGIYINVNKYPLSIPEFRRAMAYAINPEKIVTRAYENMVTAANPAGILPLPGYMKYYPKEVVDKYGFKYDPEMAKKILDELGFKDVNKDGFREDPNGKPFKLTIECPYGWTDWMVSIQSIAEDLVKVGINVEPKYPDYSKYADDLYGGKFDLILNNFTTGVSATIWSYFNGVFYPDAVESEYSYSGNFGKYANPEVETLLDELNRSNDDAKIKEVVAKLSEILLKDLPFIPLWYNGAWFQASEAVWTNWPTEKNPYAVPIGWNGWWQLTGIKTLFGIEAK”, the protein production entry is “not failed”.
The value for “MSINLQLETPRLLLREFQNSDKVAFAAYRSDPGTAKYQSWDTPYSEAQAEAFIESLQHLTSSILGEWYQLAIELKSTRQIIGDCAFCILAEDGKQGEIGFTLARKYQGNGYGTEAVIFLLNYLFNHLNLHRVRANCDPENLASIKLLERVGMRLEGRFIKSLWFKNNWVDEMWFAILQDEFTAVNV” was “failed”; that for “MDNIPDGDWYCYECVNKATNERKCIVCGGHRPSPVGKMIYCDLCPRAYHADCYIPPLLKVPRGKWYCHGCISRAPPPKKRSAGGTSGSSSKSRRDRDRESGGSAKRRSDNSKTPAMEHMQQQQMPLAGGDSHHHHHQQPPSLNSSHDESM” was “failed”; that for “MKEQSYGKFAKFLHWVMALMIIVLIAVGTYMAGLDKADPNKMLLVGMHKSFGVIFMQFAILRVIWSRLNNSPKLPDVLASWEKLLSKTITGSLYLLMLAIPFSGYAMTNLFGYPVSLFGLIDLPVLFGKNTEMALLAKQAHFLLVYTLMAALFAHITGALKHRFLDKPEADVLPRMMPIKPRI” was “failed”.
On to “MMDTVKNRRTIRKYQQKDITPDLLNDLLETSFRASTMGGMQLYSVVVTRDAEKKEILSPAHFNQPMVKEAPVVLTFCADFRRFCKYCQERNAVPGYGNLMSFLNAAMDTLLVAQTFCTLAEEAGLGICYLGTTTYNPQMIIDALHLPELVFPITTVTVGYPAESPKQVDRLPIEGIIHEESYHDYTAEDINRLYAYKESLPENKLFIEENQKETLPQVFTDVRYTKKDNEFMSENLLKVLRRQGFMD”, for which the protein production result was “not failed”.
As to “WFMPFDNWLYQLQNADPVEISSSGFEIAVIDYSKDGSESGEYSPEEIKIMVDAGVVPVAYVNIGQAEDYRFYWKESWYTNTPEWLGEEDPAWPGNYFVKYWYNEWKEIVFSYLDRVIDQGFKGIYLDRIDSFEYWAQEGVISRRSAARKMINFVLEIAEYVRERKPDMLIIPQNGENILDFDDGQLASTVSGWAVENLFYLKTIPLEENETKSRLEYLIRLNRKGKFILSVDYVDDGSDSFENISRILDYYEKAKRNGCIPYAARSDLELDEMNVIEGIQPPEALKDYESRTYR”, the protein production entry is listed as “not failed”.
In the case of “MPTFNPELHAQTLNSERAYFVQPDADPAFTPHIGALVEMLTYARLTTLQAVEGLPEDQLWATAPGFANSIGTLLAHIAAVERVYHVLSFQGRDVTPEDDGAAYWGLTMGKEGTAPARLPTLDELRAELADARAETLRVFAAKDDAWLAEPLGPGWANQHWAWFHVMEDEVNHRGQLRLLRQVLAPEEGG”, the protein production entry was “not failed”.
